3 molecules from publication doi:10.1101/2020.04.30.069369 can be followed below.

The target in series [1] is Streptococcus dysgalactiae Rgg2 (S. dysgalactiae). The series is described as follows: crystal structure.
Series [2] concerns the target Streptococcus thermophilus Rgg3 (S. thermophilus). The series is described as follows: cryo-EM structure.
Series [3] concerns the target T1, Rgg3St (Streptococcus thermophilus, UniProt Q5M4D0 1-284).
T1 sequence: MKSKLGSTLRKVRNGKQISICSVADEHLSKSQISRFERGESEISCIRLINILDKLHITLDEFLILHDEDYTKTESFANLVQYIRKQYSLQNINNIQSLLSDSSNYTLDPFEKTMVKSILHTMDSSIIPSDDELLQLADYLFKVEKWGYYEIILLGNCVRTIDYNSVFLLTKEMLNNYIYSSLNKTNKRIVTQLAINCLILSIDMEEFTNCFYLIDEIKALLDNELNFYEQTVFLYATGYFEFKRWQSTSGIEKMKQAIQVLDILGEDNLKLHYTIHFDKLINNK
The series is described as follows: X-ray crystallography.

The term stoichiometry N denotes the number of molecules, sites or subunits per partner or assembly. In series [1], “Streptococcus dysgalactiae Rgg2 (natural protein)” yielded a stoichiometry N of 2.
“Streptococcus thermophilus Rgg3 (natural protein)” gave a stoichiometry N in series [2] of 2.

B1: Rgg3 box (pSHP3DNA) (dsDNA)
DNA 1: CATAATTTTCCCATTTCCCCAACAAAAAAG
DNA 2: TTTTTGTTGGGGAAATGGGAAAATTATGCT
Turning to B1, the binding result in series [3] is “binds”.
